Patent US20150284465A1 (Chugai, published 2015)
Substitutions are numbered along the chain they refer to. Where two headings read alike, the source gives them in different places. Each block holds one binder with its values, some of them ahead of it.

Legend:
[1] = molecular target: T1, SR344 (N-terminal 1st to 344th amino acids of soluble human IL-6R) (human, UniProt P08887 20-344, limits assumed); assay: SPR (Biacore T100), antibody captured on Protein A, soluble human IL-6 receptor as analyte
T1 construct: also called recombinant soluble IL-6 receptor; soluble human IL-6 receptor
T1 sequence (looked up): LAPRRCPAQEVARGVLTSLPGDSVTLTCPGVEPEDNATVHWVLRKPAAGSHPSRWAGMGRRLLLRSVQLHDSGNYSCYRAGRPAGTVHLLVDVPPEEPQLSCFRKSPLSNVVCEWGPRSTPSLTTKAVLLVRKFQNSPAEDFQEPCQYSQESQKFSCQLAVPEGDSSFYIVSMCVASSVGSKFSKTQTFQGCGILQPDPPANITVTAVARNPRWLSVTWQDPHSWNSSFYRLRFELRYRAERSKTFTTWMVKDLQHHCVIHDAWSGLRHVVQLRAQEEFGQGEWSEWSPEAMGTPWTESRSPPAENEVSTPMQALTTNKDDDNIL
Procedure: The antigen-antibody reaction kinetics between anti-human IL-6 receptor antibody and soluble human IL-6 receptor was analyzed using Biacore T100 (GE Healthcare Biosciences). The antigen-antibody interaction was measured by immobilizing rec-Protein A (Zymed) (hereinafter “Protein A”) onto a sensor chip, capturing an antibody with the immobilized Protein A, and then reacting the antibody with the antigen as an analyte using a method known to those skilled in the art. The running buffer used was HBS-EP+, and the flow rate was 20 μl/min. Each antibody was prepared so that about 100 RU of the antibody was bound to Protein A/G. Soluble human IL-6 receptor was prepared at 0, 0.065, 0.131, and 0.261 μg/ml using HBS-EP+ and used as an analyte. In the first step of the measurement, the antibody in solution was bound to Protein A/G, and the analyte solution was allowed to interact with the antibody. After three minutes of interaction, the solution was switched to HBS-EP+, and the dissociation phase was monitored for 10 or 15 minutes. After measurement of the dissociation phase, the sensor chip was regenerated by washing with 10 μl of 10 mM glycine-HCl (pH 1.5). The association, dissociation, and regeneration constitute one analysis cycle. Each antibody was measured according to this cycle. The obtained sensorgrams were kinetically analyzed using the Biacore-specific data analysis software, Biacore T100 Evaluation Software (GE Healthcare Biosciences).

[2] = molecular target: T2, soluble human FcRn (complex of FcRn and β2-microglobulin) (human, UniProt P55899 24-290; P16213 21-119); assay: SPR (Biacore 3000), antibody captured on Protein L or anti-human kappa chain antibody, human FcRn as analyte, pH 6.0, steady state affinity
T2 construct: also called hFcRn; copies: 1 + 1
Procedure: (§1) The binding to human FcRn was assessed using Biacore 3000. An antibody was bound to Protein L or rabbit anti-human IgG Kappa chain antibody immobilized onto a sensor chip, human FcRn was added as an analyte for interaction with the antibody, and the affinity (KD) was calculated from the amount of bound human FcRn. Specifically, Protein L or rabbit anti-human IgG Kappa chain antibody was immobilized onto sensor chip CM5 (Biacore) by the amine coupling method using 50 mM Na-phosphate buffer (pH 6.0) containing 150 mM NaCl as the running buffer. Then, an antibody was diluted with a running buffer containing 0.02% Tween20, and injected to be bound to the chip. Human FcRn was then injected and the binding activity of the human FcRn to antibody was assessed.
(§2) The affinity was computed using BlAevaluation Software. The obtained sensorgram was used to calculate the amount of hFcRn bound to the antibody immediately before the end of human FcRn injection. The affinity of the antibody for human FcRn was calculated by fitting with the steady state affinity method.

[3] = molecular target: T2, soluble human FcRn (complex of FcRn and …); assay: as above; remark: listed apart in the source
Procedure: as §1, §2

[4] = molecular target: T3, hFcγRIIIaV-His6 (human-derived Fcγ receptor IIIa, Val) (human, UniProt P08637 17-208, limits assumed); assay: SPR (Biacore T100), hFcγRIIIaV-His6 immobilized on CM5, antibody as analyte at 250 µg/ml
T3 construct: also called FcγRIIIa (Val); not shown: His6 tag
Procedure: The FcγRIIIa binding was assessed by the procedure described below. […] The amounts of bound antibody were compared. […] FcγRIIIa was immobilized onto the sensor chip CM5 (Biacore) by the amine coupling method. […] The running buffer used was HBS-EP+, and the flow rate was 5 μl/min. The sample concentration was adjusted to 250 μg/ml using HBS-EP+. The analysis included two steps: two minutes of association phase where 10 μl of an antibody solution was injected and the subsequent four minutes of dissociation phase where the injection was switched with HBS-EP+. After the dissociation phase, the sensor chip was regenerated by injecting 20 μl of 5 mM hydrochloric acid. The association, dissociation, and regeneration constitute one analysis cycle. Various antibody solutions were injected to obtain sensorgrams. […] 1999 August; 29(8):2613-24.

[5] = molecular target: T4, human-derived Fcγ receptor IIb (Recombinant Human FcRIIB/C, R&D systems) (human, UniProt P31994 46-217, limits assumed); assay: SPR (Biacore T100), FcγRIIb immobilized on CM5, antibody as analyte at 200 µg/ml, 25 C
T4 construct: Bought recombinant protein, construct not described; also called FcγRIIb
T4 sequence (looked up): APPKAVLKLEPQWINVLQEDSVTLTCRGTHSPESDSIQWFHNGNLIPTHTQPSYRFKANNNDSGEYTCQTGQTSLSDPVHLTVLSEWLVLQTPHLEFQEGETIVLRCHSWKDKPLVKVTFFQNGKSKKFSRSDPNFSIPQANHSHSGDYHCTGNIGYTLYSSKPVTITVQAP
Procedure: The FcγRIIb binding was assessed by the procedure described below. […] The amounts of bound antibody were compared. […] FcγRIIb was immobilized onto the sensor chip CM5 (Biacore) by the amine coupling method. The final amount of immobilized FcγRIIb was about 4,300 RU. Then, the running buffer was injected until the baseline was stabilized. The measurement was carried out after the baseline was stabilized. […] The running buffer used was HBS-EP+ (10 mM HEPES, 0.15M NaCl, 3 mM EDTA, 0.05% v/v Surfactant P20), and the flow rate was 20 μl/min. The measurement temperature was 25° C. The concentration of each IgG or modified form thereof was adjusted to 200 μg/ml. 20 μl of an analyte was injected and allowed to interact with the immobilized FcγRIIb. After interaction, the analyte was dissociated from FcγRIIb and the sensor chip was regenerated by injecting 200 μl of the running buffer. […] This series of injection was repeated twice.

[6] = molecular target: T2, soluble human FcRn (complex of FcRn and …); assay: SPR (Biacore 3000), human FcRn as analyte, pH 6.0

T3 sequence (P08637 17-208 F176V limits assumed): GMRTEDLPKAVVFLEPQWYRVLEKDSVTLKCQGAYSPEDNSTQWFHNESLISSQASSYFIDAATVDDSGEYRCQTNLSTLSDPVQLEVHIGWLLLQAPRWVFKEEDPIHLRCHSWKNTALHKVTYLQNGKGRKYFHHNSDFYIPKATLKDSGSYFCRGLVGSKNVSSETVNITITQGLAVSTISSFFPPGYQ

B1: 6R_a_H3L3 (antibody, human IgG1, kappa, V domains shown)
VH: QVQLQESGPGLVKPSETLSLTCAVSGYSISDDHAWSWVRQPPGEGLEWIGYISYSGITNYNPSLQDRVTISRDNSKNTLYLQMNSLRAEDTAVYYCARLLARATAMDYWGQGILVTVSS
VL: DIQMTQSPSSLSASVGDSVTITCQASEDISSYLNWYQQKPGKAPELLIYYGSELESGVPSRFSGSGSGTDFTFTISSLEAEDAATYYCGQGNRLPYTFGQGTKVEIER
Kd [1]: 0.052 nM

B4: WT-M14ΔGK (antibody)
heavy: QVQLQESGPGLVRPSQTLSLTCTVSGYSITSDHAWSWVRQPPGRGLEWIGYISYSGITTYNPSLKSRVTMLRDTSKNQFSLRLSSVTAADTAVYYCARSLARTTAMDYWGQGSLVTVSSASTKGPSVFPLAPSSKSTSGGTAALGCLVKDYFPEPVTVSWNSGALTSGVHTFPAVLQSSGLYSLSSVVTVPSSNFGTQTYTCNVDHKPSNTKVDKTVERKSCVECPPCPAPPVAGPSVFLFPPKPKDTLMISRTPEVTCVVVDVSHEDPEVQFNWYVDGVEVHNAKTKPREEQFNSTFRVVSVLTVVHQDWLNGKEYKCKVSNKGLPSSIEKTISKAKGQPREPQVYTLPPSREEMTKNQVSLTCLVKGFYPSDIAVEWESNGQPENNYKTTPPVLDSDGSFFLYSKLTVDKSRWQQGNVFSCSVMHEALHNHYTQKSLSLSP
light: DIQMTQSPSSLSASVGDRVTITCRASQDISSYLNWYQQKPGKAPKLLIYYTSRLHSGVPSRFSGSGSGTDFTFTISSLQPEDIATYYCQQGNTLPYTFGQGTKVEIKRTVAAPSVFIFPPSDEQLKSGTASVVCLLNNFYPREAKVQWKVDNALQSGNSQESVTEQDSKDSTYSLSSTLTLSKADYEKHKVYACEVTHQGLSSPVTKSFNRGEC
Kd [3]: 1850 nM
binding result [4]: binds
binding result [5]: binds

B5: WT-M58 (antibody)
heavy: B4 heavy with H266Q, S328A, S329P, A337T, R353Q, V395M, Q417E
light: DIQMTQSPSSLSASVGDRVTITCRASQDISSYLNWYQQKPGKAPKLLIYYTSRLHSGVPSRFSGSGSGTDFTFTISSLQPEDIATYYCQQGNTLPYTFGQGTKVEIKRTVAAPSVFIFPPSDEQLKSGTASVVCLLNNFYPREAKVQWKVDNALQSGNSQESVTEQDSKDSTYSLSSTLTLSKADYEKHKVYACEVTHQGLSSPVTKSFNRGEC
notes: also called M58 (WT)
Kd [3]: 1170 nM
binding activity relative to WT-IgG1 [6]: ~1.4 fold
Kd [2]: 1030 nM

B7: 6R_a_H1L1 (antibody, human IgG1, kappa, V domains shown)
VH: QVQLQESGPGLVRPSQTLSLTCTVSGYSITSDHAWSWVRQPPGRGLEWIGYISYSGITTYNPSLKSRVTMLRDTSKNQFSLRLSSVTAADTAVYYCARVLARITAMDYWGQGSLVTVSS
VL: DIQMTQSPSSLSASVGDRVTITCRASQDISSYLNWYQQKPGKAPKLLIYYTSRLHSGVPSRFSGSGSGTDFTFTISSLQPEDIATYYCGQGNRLPYTFGQGTKVEIKR
notes: Anti-human IL-6 receptor antibody
Kd [1]: 0.067 nM

B8: 6R_a_H2L2 (antibody, human IgG1, kappa, V domains shown)
VH: QVQLQESGPGLVKPSETLSLTCAVSGYSISDDHAWSWVRQPPGEGLEWIGYISYSGITNYNPSLKGRVTISRDTSKNQFSLKLSSVTAADTAAYYCARVLARITAMDYWGEGTLVTVSS
VL: B1 VL with E27Q, E55H
Kd [1]: 0.03 nM

The next lines start with the values.

Kd [2]: 1070 nM
B2: anti-IL-31 receptor antibody H0L0 with IgG1 constant region (antibody)
heavy: not shown
VL: DIQMTQSPSSLSASVGDRVTITCRTSENIYSFLAWYQQKPGKAPKLLIYNAKTLAKGVPSRFSGSGSGTDFTLTISSLQPEDFATYYCQHHYESPLTFGGGTKVEIK
notes: Not the anti-glypican 3 antibody of the same name; also called H0L0 (IgG1)

Kd [2]: 910 nM
B3: anti-IL-31 receptor antibody H0L0 with M58 constant region (antibody)
heavy: QVQLVQSGAEVKKPGASVKVSCKASGYTFTGYIMNWVRQAPGQGLEWMGLINPYNGGTSYNQKFKGRVTITADESTSTAYMELSSLRSEDTAVYYCARDGYDDGPYTMDYWGQGTLVTVSASTKGPSVFPLAPSSKSTSGGTAALGCLVKDYFPEPVTVSWNSGALTSGVHTFPAVLQSSGLYSLSSVVTVPSSNFGTQTYTCNVDHKPSNTKVDKTVERKSCVECPPCPAPPVAGPSVFLFPPKPKDTLMISRTPEVTCVVVDVSQEDPEVQFNWYVDGVEVHNAKTKPREEQFNSTFRVVSVLTVVHQDWLNGKEYKCKVSNKGLPAPIEKTISKTKGQPREPQVYTLPPSQEEMTKNQVSLTCLVKGFYPSDIAVEWESNGQPENNYKTTPPMLDSDGSFFLYSKLTVDKSRWQEGNVFSCSVMHEALHNHYTQKSLSLSP
VL: B2 VL
notes: also called H0L0 (M58)

Kd [3]: 420 nM
binding activity relative to WT-IgG1 [6]: ~3.8 fold
B6: WT-M73 (antibody)
heavy: B4 heavy with H266Q, S328A, S329P, A337T, R353Q, V395M, Q417E, N432A
light: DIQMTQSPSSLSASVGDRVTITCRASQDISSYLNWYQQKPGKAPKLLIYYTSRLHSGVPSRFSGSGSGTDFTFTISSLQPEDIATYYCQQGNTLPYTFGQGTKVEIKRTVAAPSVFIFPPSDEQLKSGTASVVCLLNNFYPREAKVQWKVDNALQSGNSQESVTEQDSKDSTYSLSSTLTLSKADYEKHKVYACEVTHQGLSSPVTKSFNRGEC
